B1: His-tagged VCIP135(903-1053) (domain or fragment, rat, UniProt Q8CF97 903-1053, looked up)
chain: GEDVWSYAKGLPHMFQQGGVFYNIMKKTMGMADGKHCTFPHLPGKTFVYNASEDRLELCVDAAGHFPIGPDVEDLVKEAVSQVRAEATTRSRESSPSHGLLKLGSGGVVKKKSEQLHNVTAFQGKGHSLGTASSNPHMDPRARETLAVRKH
B2: His-tagged VCIP135(1-743) (domain or fragment, rat, UniProt Q8CF97 1-743, looked up)
chain: MSQPPPPPPLPPPPPPPEAPQTSSSLAAAATPGGLSKRRDRRILSGSCPDPKCQARLFFPASGSVSIECTECGQRHEQQQLLGVEEVTDPDVVLHNLLRNALLGVTGAPKKNTELVKVMGLSNYHCKLLSPILARYGMDKQTGRAKLLRDMNQGELFDCALLGDRAFLIEPEHVNTVGYGKDRSGSLLYLHDTLEDIKRANKSQECLIPVHVDGDGHCLVHAVSRALVGRELFWHALRENLKQHFQQHLARYQALFHDFIDAAEWEDIINECDPLFVPPEGVPLGLRNIHIFGLANVLHRPIILLDSLSGMRSSGDYSATFLPGLIPAEKCTGRDGHLNKPICIAWSSSGRNHYIPLVGIKGAALPKLPMNLLPKAWGVPQDLIKKYIKLEEDGGCVIGGDRSLQDKYLLRLVAAMEEVFMDKHGIHPSLVADVHQYFYRRTGVIGVQPEEVTAAAKKAVMDNRLHKCLLCGALSELHVPPEWLAPGGKLYNLAKSTHGQLRPDKNYSFPLNNLVCSYDPVKDVLLPDYGLSNLTACNWCHGTSVRRVRGDGSIVYLDGDRTNSRSTGGKCGCGFKHFWEGKEYDNLPEAFPITLEWGGRVVRETVYWFQYESDPSLNSNVYDVAMKLVTKHFPGEFGSEILVQKVVHTILHQTAKKNPDDYTPVNIDGAHAQRIGDVQGQELESQLPTKIILTGQKTKTLHKEELNMSKTERTIQQNITEQASVMQKRKTEKLKQEQKGQPR
notes: also called N-terminal half of VCIP135
B3: His-tagged VCIP135(1-390) (domain or fragment, rat, UniProt Q8CF97 1-390, looked up)
chain: MSQPPPPPPLPPPPPPPEAPQTSSSLAAAATPGGLSKRRDRRILSGSCPDPKCQARLFFPASGSVSIECTECGQRHEQQQLLGVEEVTDPDVVLHNLLRNALLGVTGAPKKNTELVKVMGLSNYHCKLLSPILARYGMDKQTGRAKLLRDMNQGELFDCALLGDRAFLIEPEHVNTVGYGKDRSGSLLYLHDTLEDIKRANKSQECLIPVHVDGDGHCLVHAVSRALVGRELFWHALRENLKQHFQQHLARYQALFHDFIDAAEWEDIINECDPLFVPPEGVPLGLRNIHIFGLANVLHRPIILLDSLSGMRSSGDYSATFLPGLIPAEKCTGRDGHLNKPICIAWSSSGRNHYIPLVGIKGAALPKLPMNLLPKAWGVPQDLIKKYIKL
notes: VCIP135, rat, residues 1-390
B4: His-tagged VCIP135(744-1221) (domain or fragment, rat, UniProt Q8CF97 744-1221, looked up)
chain: TVSPSTIRDGPSSAPATPTKAPYSPTTSKEKKIRITTNDGRQSMVTLKSSTTFFELQESIAREFNIPPYLQCIRYGFPPKELMPPQAGMEKEPVPLQHGDRITIEILKGKAEGGPSTAAHSAHTVRQEEIAVTGKLSSKELQEQADKEMYSLCLLATLMGEDVWSYAKGLPHMFQQGGVFYNIMKKTMGMADGKHCTFPHLPGKTFVYNASEDRLELCVDAAGHFPIGPDVEDLVKEAVSQVRAEATTRSRESSPSHGLLKLGSGGVVKKKSEQLHNVTAFQGKGHSLGTASSNPHMDPRARETLAVRKHNTGTDFSNSSIKTEPPVFTAASSNSELIRIAPGVVTMRDGRQIDPDVVEAQRKKLQEMVSSIQASMDKHLRDQSTEQTPSDLSQRKVEAVSSSVRPGNLQTGLPESFSLTGGTENLNTETTDSRVADVLGAAFATRSKAQKENSMEEPEEMDSQDAETTNTTEPMDHS
notes: also called C-terminal half of VCIP135

Molecular target: T1, endogenous p97 purified from rat liver cytosol, biotinylated (rat (endogenous in rat liver), UniProt P46462 1-806, biotinylated using EZ-Link Sulfo-NHS-LC-biotin (sites not given))
T1 construct: p97 ATPase (VCP), endogenous protein purified from rat liver cytosol; Held on streptavidin beads through the biotin; also called p97ATPase; VCP; source: purified from rat liver cytosol
Assay: pull-down; endogenous rat liver p97, biotinylated, immobilised on streptavidin beads; His-tagged VCIP135 or its fragments or mutants in solution; 1 mM AMP-PNP (Figs 1A, 5C, 5D: the indicated nucleotide, 1 mM); 20 mM HEPES, 100 mM KCl, 1 mM MgCl2, 1 mM DTT, 0.5% CHAPS, 10% glycerol, pH 7.4; Western blot with antibodies to p97 and His-tag
Details: both partners purified

T1 sequence (P46462 whole entry): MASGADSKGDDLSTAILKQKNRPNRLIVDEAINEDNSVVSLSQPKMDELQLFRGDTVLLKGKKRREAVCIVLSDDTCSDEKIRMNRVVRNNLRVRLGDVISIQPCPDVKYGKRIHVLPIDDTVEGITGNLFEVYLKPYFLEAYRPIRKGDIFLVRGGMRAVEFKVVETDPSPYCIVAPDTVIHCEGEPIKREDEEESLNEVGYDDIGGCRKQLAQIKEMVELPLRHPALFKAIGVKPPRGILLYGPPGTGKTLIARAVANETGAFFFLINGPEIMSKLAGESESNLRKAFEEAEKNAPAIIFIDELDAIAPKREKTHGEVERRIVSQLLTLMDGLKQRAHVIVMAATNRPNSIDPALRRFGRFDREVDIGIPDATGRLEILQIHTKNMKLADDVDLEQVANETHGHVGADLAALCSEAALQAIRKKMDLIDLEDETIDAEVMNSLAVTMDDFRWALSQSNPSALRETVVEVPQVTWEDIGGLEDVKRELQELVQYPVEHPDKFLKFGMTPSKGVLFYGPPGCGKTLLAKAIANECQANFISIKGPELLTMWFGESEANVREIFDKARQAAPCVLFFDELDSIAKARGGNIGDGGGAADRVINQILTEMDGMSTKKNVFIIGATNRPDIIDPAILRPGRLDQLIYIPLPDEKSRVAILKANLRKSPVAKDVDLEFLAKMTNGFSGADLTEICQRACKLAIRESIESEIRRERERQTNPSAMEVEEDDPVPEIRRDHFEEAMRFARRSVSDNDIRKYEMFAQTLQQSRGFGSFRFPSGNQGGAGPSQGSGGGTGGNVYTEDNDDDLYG

Binding result, binds:
B1
B2
B3
B4

From publication PMC10805704, “VCIP135 associates with both the N- and C-terminal regions of p97 ATPase” (The Journal of Biological Chemistry, 2023)
